Here are results for 67 sequences from the supplement of paper PMC10724198.

The subject of the data set is Saccharomyces cerevisiae. As to the kind of experiment: protein stability index of tFT-peptide fusion (C-terminal peptide) (PSI (0-1 scale)); higher = more stable (slower turnover). The note with it: temperature: 30 C. The protocol:
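MPS profiling in S. cerevisiae of the yeast C-terminome library: the last 12 aa of each annotated ORF are fused to the C-terminus of a sfGFP-mCherry timer, after a GGGS linker. Cells are FACS-sorted into 8 mCherry/sfGFP bins and deep-sequenced. PSI runs from 0 (unstable) to 1 (stable); wild type and das1Δ backgrounds, two technical replicates each.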

Setting [1] is: genetic background: das1 deletion.

± gives the standard deviation of the averaged measurements.

In turn, AATNNLFIFSAL [CDC55 C-terminal 12 aa] gave a protein stability index under setting [1] of 0.732 ± 0.0084 and a protein stability index (genetic background: wild type) of 0.713 ± 0.073.
With “ACHMAKPLKLPT [YHR032C-A C-terminal 12 aa]”, the protein stability index worked out at 0.679 ± 0.017 under setting [1] and 0.673 ± 0.029 (genetic background: wild type).
For ACILMAISQFNS [KSH1 C-terminal 12 aa], the protein stability index by setting is: under setting [1], 0.619 ± 0.013; (genetic background: wild type) 0.6333 ± 0.0061.
Taken in the same sequence, the figures for ADESKKEITTGR [MPC2 C-terminal 12 aa] were 0.714 ± 0.022 and 0.653 ± 0.018.
Taken in the same sequence, the figures for AEFFTKFDELVV [EHT1 C-terminal 12 aa] were 0.6616 ± 0.0027 and 0.666 ± 0.045.
On the same counts, the results for AEKRDALLKEDA [RPL19A C-terminal 12 aa] are 0.6845 ± 0.0059 and 0.699 ± 0.0074.
Turning to AFIFGNYKDILT [RGA1 C-terminal 12 aa], the protein stability index is, setting by setting: under setting [1], 0.755 ± 0.01; (genetic background: wild type) 0.7204 ± 0.0034.
On the same counts, the results for AHNFKVPETSKG [PAN2 C-terminal 12 aa] are 0.696 ± 0.032 and 0.677 ± 0.022.
Taken in the same sequence, the figures for AHQKEILHSVSN [YML6 C-terminal 12 aa] were 0.695 ± 0.016 and 0.726 ± 0.034.
Taken in the same sequence, the figures for AITLAWLAHALT [YHL037C C-terminal 12 aa] were 0.4375 ± 0.0012 and 0.39 ± 0.011.
AITSAQELLDSK [RBL2 C-terminal 12 aa]: the protein stability index is 0.687 ± 0.024 under setting [1] and 0.72 ± 0.0079 (genetic background: wild type).
Taken in the same sequence, the figures for AKFFIPFSHSSP [YPL185W C-terminal 12 aa] were 0.729 ± 0.01 and 0.705 ± 0.051.
On the same counts, the results for “AKTKFCCCIPFK [YOR376W-A C-terminal 12 aa]” are 0.7168 ± 0.0059 and 0.721 ± 0.078.
Taken in the same sequence, the figures for ALDAEKYLTSLE [TRR1 C-terminal 12 aa] were 0.707 ± 0.0079 and 0.695 ± 0.031.
As to ALDAERYLSAQE [TRR2 C-terminal 12 aa], the protein stability index reads like this: under setting [1], 0.698 ± 0.025; (genetic background: wild type) 0.672 ± 0.015.
ALFKAAGGKIKK [YLF2 C-terminal 12 aa] showed a protein stability index under setting [1] of 0.6703 ± 0.0023 and a protein stability index (genetic background: wild type) of 0.66 ± 0.011.
Taken in the same sequence, the figures for ALHLLTKFTHII [SBH2 C-terminal 12 aa] were 0.733 ± 0.012 and 0.167 ± 0.043.
Take ALKKAARQVKKE [IFA38 C-terminal 12 aa]: the protein stability index runs as follows: under setting [1], 0.71 ± 0.0074; (genetic background: wild type) 0.6713 ± 0.0036.
Taken in the same sequence, the figures for ALNRSAIIKDDK [DDP1 C-terminal 12 aa] were 0.703 ± 0.0071 and 0.708 ± 0.01.
ALPLPDEDDADL [GSP1 C-terminal 12 aa]: the protein stability index by setting is: under setting [1], 0.673 ± 0.02; (genetic background: wild type) 0.715 ± 0.011.
On the same counts, the results for ALSKVGIYTIAN [PAU10 C-terminal 12 aa] are 0.702 ± 0.013 and 0.675 ± 0.042.
On the same counts, the results for ALWKEKKEKPRS [RPS23A C-terminal 12 aa] are 0.709 ± 0.01 and 0.687 ± 0.03.
Taken in the same sequence, the figures for ANDWKTYENMKK [SIP18 C-terminal 12 aa] were 0.7042 ± 0.0029 and 0.706 ± 0.041.
ANEMADELSRYL [IRC6 C-terminal 12 aa] returned a protein stability index under setting [1] of 0.724 ± 0.019 and a protein stability index (genetic background: wild type) of 0.7344 ± 0.0047.
Taken in the same sequence, the figures for ANFNDFYDAFYN [RSC30 C-terminal 12 aa] were 0.732 ± 0.019 and 0.707 ± 0.026.
On the same counts, the results for ANGRHPQPSITL [CDC33 C-terminal 12 aa] are 0.71 ± 0.016 and 0.709 ± 0.0097.
On the same counts, the results for APEFLDWLDEEN [HEM2 C-terminal 12 aa] are 0.738 ± 0.011 and 0.6793 ± 0.0033.
As for “APNSNSSSGSVS [YFL013W-A C-terminal 12 aa]”, the protein stability index under setting [1] was 0.673 ± 0.026 and the protein stability index (genetic background: wild type) came to 0.66 ± 0.034.
Taken in the same sequence, the figures for AQGKLIMKVEGF [AST2 C-terminal 12 aa] were 0.698 ± 0.03 and 0.72 ± 0.024.
For AQLLLTLNEETS [CAF40 C-terminal 12 aa], the protein stability index is 0.6844 ± 0.0028 under setting [1] and 0.695 ± 0.032 (genetic background: wild type).
Taken in the same sequence, the figures for AQPSQSEKEKTK [LNP1 C-terminal 12 aa] were 0.679 ± 0.015 and 0.678 ± 0.04.
Turning to ARGCCEVTSKRF [YGL188C C-terminal 12 aa], the protein stability index reads like this: under setting [1], 0.683 ± 0.011; (genetic background: wild type) 0.676 ± 0.0099.
Taken in the same sequence, the figures for ARGRRRSKGFKV [RPL18A C-terminal 12 aa] were 0.722 ± 0.03 and 0.696 ± 0.016.
Taken in the same sequence, the figures for ARLDKSLTFEDQ [RIM20 C-terminal 12 aa] were 0.6983 ± 0.0055 and 0.699 ± 0.038.
On the same counts, the results for ASDEPSRKKNRR [SSN3 C-terminal 12 aa] are 0.743 ± 0.044 and 0.704 ± 0.056.
As to ASSIYIIFDYEN [BUB3 C-terminal 12 aa], the protein stability index reads like this: under setting [1], 0.6561 ± 0.0041; (genetic background: wild type) 0.637 ± 0.025.
On the same counts, the results for ATFSHPELTNIH [SDH6 C-terminal 12 aa] are 0.716 ± 0.01 and 0.716 ± 0.024.
Taken in the same sequence, the figures for ATMALRKLVSRE [MSA2 C-terminal 12 aa] were 0.693 ± 0.025 and 0.705 ± 0.061.
Consider ATRVSSRLRNKK [EAF7 C-terminal 12 aa], for which the protein stability index was 0.7311 ± 0.0026 under setting [1] and 0.701 ± 0.025 (genetic background: wild type).
On the same counts, the results for ATYLNKSDNQVQ [YLR446W C-terminal 12 aa] are 0.675 ± 0.052 and 0.656 ± 0.024.
Consider AVERLKLLKDYL [BNA3 C-terminal 12 aa], for which the protein stability index is 0.685 ± 0.013 under setting [1] and 0.73 ± 0.0074 (genetic background: wild type).
Taken in the same sequence, the figures for AYFALREKKFLL [YIL012W C-terminal 12 aa] were 0.694 ± 0.019 and 0.641 ± 0.018.
Taken in the same sequence, the figures for AYIDTSIPNLLL [REG2 C-terminal 12 aa] were 0.707 ± 0.022 and 0.7067 ± 0.0067.
Taken in the same sequence, the figures for AYRTYDISLTEN [DRN1 C-terminal 12 aa] were 0.694 ± 0.035 and 0.656 ± 0.012.
Turning to CDEVVEHVKASA [PCM1 C-terminal 12 aa], the protein stability index under setting [1] stood at 0.708 ± 0.0093 and the protein stability index (genetic background: wild type) is 0.687 ± 0.017.
On the same counts, the results for “CGGKRNLQRNNF [YLR149C-A C-terminal 12 aa]” are 0.703 ± 0.017 and 0.6759 ± 0.0037.
Take CLGDSIVNLLLI [YGR259C C-terminal 12 aa]: the protein stability index is, setting by setting: under setting [1], 0.677 ± 0.011; (genetic background: wild type) 0.3352 ± 0.0027.
Taken in the same sequence, the figures for CLREFMNGQRYI [DIA4 C-terminal 12 aa] were 0.7021 ± 0.0027 and 0.68 ± 0.034.
Consider CLSIIGFLKTKV [YOR015W C-terminal 12 aa], for which the protein stability index under setting [1] worked out at 0.7002 ± 0.0043 and the protein stability index (genetic background: wild type) stood at 0.622 ± 0.023.
On the same counts, the results for CMKAVILYSEQM [ATE1 C-terminal 12 aa] are 0.675 ± 0.012 and 0.6847 ± 0.0021.
Taken in the same sequence, the figures for CNVCLFPDMYAR [CTF19 C-terminal 12 aa] were 0.71 ± 0.01 and 0.727 ± 0.039.
As to CNYYYHPRITFA [RMT2 C-terminal 12 aa], the protein stability index was 0.6909 ± 0.0037 under setting [1] and 0.708 ± 0.039 (genetic background: wild type).
Taken in the same sequence, the figures for CPHHNPDNQQFF [BIK1 C-terminal 12 aa] were 0.702 ± 0.025 and 0.702 ± 0.078.
On the same counts, the results for CTKHRFGYQNWI [ARP6 C-terminal 12 aa] are 0.692 ± 0.0049 and 0.692 ± 0.012.
Taken in the same sequence, the figures for CVKVQQFSVIVL [YDR193W C-terminal 12 aa] were 0.544 ± 0.013 and 0.617 ± 0.011.
As to DDFDMMEATQLS [MUD2 C-terminal 12 aa], the protein stability index reads like this: under setting [1], 0.70816 ± 0.00051; (genetic background: wild type) 0.696 ± 0.0094.
In the case of DDNEKALTWEEL [ATG19 C-terminal 12 aa], the protein stability index under setting [1] is 0.706 ± 0.013 and the protein stability index (genetic background: wild type) was found to be 0.6976 ± 0.0069.
On the same counts, the results for DEADSSMTEASV [SNF2 C-terminal 12 aa] are 0.704 ± 0.033 and 0.634 ± 0.015.
Taken in the same sequence, the figures for DEDVDFLKVQVF [HAP4 C-terminal 12 aa] were 0.709 ± 0.041 and 0.747 ± 0.064.
On the same counts, the results for DEFQRLTNGIPY [STT4 C-terminal 12 aa] are 0.695 ± 0.024 and 0.6923 ± 0.0061.
In the case of DEKLHSHNASPN [YNL198C C-terminal 12 aa], the protein stability index by setting is: under setting [1], 0.6788 ± 0.0032; (genetic background: wild type) 0.697 ± 0.014.
Taken in the same sequence, the figures for “DFIRGVAVFMHI [YMR272W-A C-terminal 12 aa]” were 0.691 ± 0.02 and 0.66587 ± 0.00052.
Take DHIPLLTEFKIL [NGL1 C-terminal 12 aa]: the protein stability index under setting [1] was determined as 0.721 ± 0.036 and the protein stability index (genetic background: wild type) worked out at 0.188 ± 0.02.
Taken in the same sequence, the figures for DIISFTSTLHGG [URM1 C-terminal 12 aa] were 0.727 ± 0.015 and 0.705 ± 0.059.
On the same counts, the results for DISDKIRRMQSR [MGP12 C-terminal 12 aa] are 0.692 ± 0.0073 and 0.777 ± 0.16.
With DKITAELILNKI [EMC2 C-terminal 12 aa], the protein stability index by setting is: under setting [1], 0.6872 ± 0.0017; (genetic background: wild type) 0.6632 ± 0.0027.
As for DKKKKKSKCVIL [RHO5 C-terminal 12 aa], the protein stability index under setting [1] is 0.753 ± 0.0091 and the protein stability index (genetic background: wild type) is 0.74 ± 0.014.
